From patent US9051577 (GREENOVATION BIOTECH, dated 2015)

Tests used:
Test in all cases: cell-based or functional assay
[1] = target: Fcgamma-RIII receptor (CD16) on human PBMC effector cells, 158 genotype of the donor not stated (human) (UniProt P08637)
[2] = target: CD16 (FcgammaRIIIa) 158F/F, low affinity phenotype, on effector cells (PBMC/NK) of a human donor (human) (UniProt P08637)
[3] = target: CD16 (FcgammaRIIIa) 158V/V, high affinity phenotype, on effector cells (PBMC/NK) of a human donor (human) (UniProt P08637)
Chain of CD16 (FcgammaRIIIa) 158V/V, high affinity phenotype, on effector cells (PBMC/NK) of a human donor (human) (P08637 17-254 F176V): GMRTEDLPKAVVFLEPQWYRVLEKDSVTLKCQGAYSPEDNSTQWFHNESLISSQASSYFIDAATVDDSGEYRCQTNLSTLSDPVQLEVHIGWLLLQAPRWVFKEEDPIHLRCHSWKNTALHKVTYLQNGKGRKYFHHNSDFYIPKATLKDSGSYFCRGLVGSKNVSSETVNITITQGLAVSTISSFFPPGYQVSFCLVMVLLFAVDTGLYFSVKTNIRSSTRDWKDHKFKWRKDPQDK

[4] = target: Fcgamma-RIII receptor (CD16) on human PBMC effector cells, 158 genotype of the donor not stated (human, UniProt P08637 17-254)
Chain of Fcgamma-RIII receptor (CD16) on human PBMC effector cells, 158 genotype of the donor not stated (P08637 17-254): as the sequence (P08637 17-254 F176V) above, with V160F counted along it

[5] = target: CD16 (FcgammaRIIIa) 158V/V, high affinity phenotype, on effector cells (PBMC/NK) of a human donor (human, UniProt P08637 17-254)
Chain of CD16 (FcgammaRIIIa) 158V/V, high affinity phenotype, on effector cells (PBMC/NK) of a human donor (P08637 17-254 F176V): as the sequence (P08637 17-254 F176V) above

[6] = target: CD16 (FcgammaRIIIa) 158F/F, low affinity phenotype, on effector cells (PBMC/NK) of a human donor (human, UniProt P08637 17-254)
Chain of CD16 (FcgammaRIIIa) 158F/F, low affinity phenotype, on effector cells (PBMC/NK) of a human donor (P08637 17-254): as the sequence (P08637 17-254 F176V) above, with V160F counted along it

Chain of CD16 (FcgammaRIIIa) 158F/F, low affinity phenotype, on effector cells (PBMC/NK) of a human donor (human) (P08637 17-254): as the sequence (P08637 17-254 F176V) above, with V160F counted along it
Chain of Fcgamma-RIII receptor (CD16) on human PBMC effector cells, 158 genotype of the donor not stated (human) (P08637 17-254): as the sequence (P08637 17-254 F176V) above, with V160F counted along it

Q: Which results are given for “IGN314, glyco-engineered IGN311 variant expressed in delta-xyl-t/delta-fuc-t double knockout moss (Physcomitrella patens) (antibody)”?
A: EC50 of ADCC lysis of SK-BR-3 cells by human PBMC in 10% FCS [1]: 0.052 µg/mL; EC50 of ADCC lysis of SK-BR-3 cells by human PBMC in 40% NHS [1]: 0.126 µg/mL; EC50 of ADCC lysis (51Cr release), OVCAR-3 target cells, CD16158 F/F effector cells [2]: 0.025 µg/mL; Enhancement (ADCC EC50 of IGN311 against IGN314), OVCAR-3, F/F effector cells [2]: 40 fold; EC50 of ADCC lysis (51Cr release), OVCAR-3 target cells, CD16158 V/V effector cells [3]: 8 ng/mL; EC50 of ADCC lysis (51Cr release), SK-BR-3 target cells, CD16158 V/V effector cells [3]: 0.144 µg/mL; EC50 of ADCC lysis (51Cr release), TF-1 target cells, CD16158 V/V effector cells [3]: 0.366 µg/mL; Enhancement (ADCC EC50 of IGN311 against IGN314), OVCAR-3, V/V effector cells [3]: 39 fold; Enhancement (ADCC EC50 of IGN311 against IGN314), SK-BR-3, V/V effector cells [3]: 7 fold; Enhancement (ADCC EC50 of IGN311 against IGN314), TF-1, V/V effector cells [3]: 15 fold

B1: IGN311, humanized monoclonal IgG anti-Lewis Y antibody (parental, expressed in SP 2.0 cells) (antibody, V domains shown)
VH: EVQLLESGGGLVQPGGSLRLSCAASGFTFSDYYMYWVRQAPEKRLEWVAYISNGGGSSHYVDSVKGRFTISRDNSKNTLYLQMNSLRAEDTALYHCARGMDYGAWFAYWGQGTLVTVSS
VL: DIVMTQSPLSLPVTPGEPASISCRSSQSIVHSNGNTYLEWYLQKPGQSPQLLISKVSNRFSGVPDRFSGSGSGTDFTLKISRVEAEDVGVYYCFQGSHVPFTFGQGTKLEIK
modifications: N-glycan at Asn297 almost completely core-fucosylated, with terminal galactosylation; C-terminal lysine of the heavy chain partly present (both SLSLSPG and SLSLSPGK detected)
Q: Which “EC50 of ADCC lysis of SK-BR-3 cells by human PBMC in 10% FCS” value [4] does the source give for B1 here?
A: 0.301 µg/mL

Q: And the “EC50 of ADCC lysis of SK-BR-3 cells by human PBMC in 40% NHS” value [4]?
A: 1.56 µg/mL

Q: What about the “EC50 of ADCC lysis (51Cr release), OVCAR-3 target cells, CD16158 V/V effector cells” value [5] of the same molecule?
A: 0.315 µg/mL

Q: And the “EC50 of ADCC lysis (51Cr release), SK-BR-3 target cells, CD16158 V/V effector cells” value [5]?
A: 1.04 µg/mL

Q: What about the “EC50 of ADCC lysis (51Cr release), TF-1 target cells, CD16158 V/V effector cells” value [5] of the same molecule?
A: 5.32 µg/mL

Q: What about the “EC50 of ADCC lysis (51Cr release), OVCAR-3 target cells, CD16158 F/F effector cells” value [6] of the same molecule?
A: 0.993 µg/mL
